Data taken from publication PMC3567400 (Biochemistry, 2013).

Target: the molecule itself
Assay: crystal structure

B1: LnmK (Tyr62Phe) (enzyme, Streptomyces atroolivaceus S-140, UniProt Q8GGP1 2-319, looked up)
chain: SITSSLDVRPEIKQAVTVRPGMCGPGSLFVGQLGDWTWETVSAQCDTDVFAARDASGNPTFLAFYYFRVRGGRELHPGSLTFGDRLTVTSGCYDQGTESVLTLHRIDRAGSDDAQRPLDLHEFYERPRDGSLYVENFNRWVTRSAPGSNEDLVKSSPPGFRNDGLPQLPAAYSPRAVYREARTAHTFRALDEPGFRLLPDTVEVEHPVDIVRDVNGVGLLYFASYFSMVDKAALALWRRLGRSDRAFLRRVVVDQQMCYLGNADLDSVLTLGARVRVSTETPGEELVDVVISDRDSGRVIAVSTLHTQHDAHDPKGEA
  binding result: binds
